Data as given in paper PMC9352969 (The Journal of Biological Chemistry, 2022).

How the values were obtained:
[1] = target: FtsQ, full-length (Escherichia coli divisome transmembrane protein) (Escherichia coli, UniProt P06136 1-276); experiment: pull-down
[2] = target: T1, FtsL, full-length (Escherichia coli divisome transmembrane protein) (Escherichia coli, UniProt P0AEN4 1-121); experiment: pull-down
T1 sequence (looked up): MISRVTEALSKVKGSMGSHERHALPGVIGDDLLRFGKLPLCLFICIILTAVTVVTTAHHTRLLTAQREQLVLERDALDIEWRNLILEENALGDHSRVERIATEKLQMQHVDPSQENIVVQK

Sequence of FtsQ, full-length (Escherichia coli divisome transmembrane protein) (P06136 whole entry): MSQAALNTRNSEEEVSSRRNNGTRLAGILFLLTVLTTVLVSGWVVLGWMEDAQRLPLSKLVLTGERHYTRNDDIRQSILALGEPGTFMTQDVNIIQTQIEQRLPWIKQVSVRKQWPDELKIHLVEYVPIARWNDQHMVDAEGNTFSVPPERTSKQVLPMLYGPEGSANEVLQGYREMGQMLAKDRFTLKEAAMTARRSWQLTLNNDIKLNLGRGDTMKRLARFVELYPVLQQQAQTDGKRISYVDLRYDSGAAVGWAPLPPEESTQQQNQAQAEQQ

binding result [1]: binds
binding result [2]: binds
B1: FtsB, full-length, His-tagged (Escherichia coli divisome transmembrane protein) (natural protein, UniProt P0A6S5 1-103, looked up)
chain: MGKLTLLLLAILVWLQYSLWFGKNGIHDYTRVNDDVAAQQATNAKLKARNDQLFAEIDDLNGGQEALEERARNELSMTRPGETFYRLVPDASKRAQSAGQNNR
